Reference: article doi:10.1101/2023.03.02.530591

Target: Human Macrophage Galactose Lectin (MGL) isoform 2 extracellular domain (residues Q85-H316) (human)
Experiment: SAXS

## Human Macrophage Galactose Lectin (MGL) isoform 2 extracellular domain (residues Q85-H316) (domain or fragment)
  stoichiometry N: 3
